Measurements taken from patent US9156916.

Tests used:
[1] = target: human surface membrane immunoglobulin D (smIgD) (human) (UniProt P01880); assay: cell-based or functional assay
[2] = target: human surface membrane immunoglobulin D (smIgD) (human) (UniProt P01880); assay: flow cytometry, dual labelling of human PBMC (CD14 and IgD)
[3] = target: human surface membrane immunoglobulin D (smIgD) (human) (UniProt P01880); assay: flow cytometry, dual labelling of human PBMC (CD3 and IgD)

Chain of UniProt P01880 (P01880 whole entry): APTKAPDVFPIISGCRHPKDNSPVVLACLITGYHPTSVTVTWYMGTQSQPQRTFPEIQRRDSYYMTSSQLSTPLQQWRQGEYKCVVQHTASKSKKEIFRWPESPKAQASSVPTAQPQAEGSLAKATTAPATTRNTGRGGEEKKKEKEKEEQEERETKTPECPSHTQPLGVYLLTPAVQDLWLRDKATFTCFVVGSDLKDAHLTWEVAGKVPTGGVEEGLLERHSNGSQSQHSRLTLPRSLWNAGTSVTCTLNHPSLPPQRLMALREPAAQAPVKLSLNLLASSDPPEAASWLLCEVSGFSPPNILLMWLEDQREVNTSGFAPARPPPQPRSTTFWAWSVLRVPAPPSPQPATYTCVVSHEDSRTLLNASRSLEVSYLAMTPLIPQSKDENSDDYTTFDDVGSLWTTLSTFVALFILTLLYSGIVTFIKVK

Row | proportion of human monocyte population expressing intra-cellular TNF-α after LPS, antibody given 24 hrs before LPS (flow cytometry) [1] [%] | proportion of human monocyte population expressing intra-cellular TNF-α, antibody given concurrently with LPS for 4 hours (flow cytometry) [1] [%] | percent of CD14+ cells labelled for smIgD [2] [%] | percent of CD3+ T-cells labelled for smIgD [3] [%] | Substance
1 | 5 | 26 | – | – | anti-human smIgD antibody (clone STAR94, Serotec, Oxford, UK)
2 | – | – | 54 | 10 | goat FITC-conjugated anti-human IgD antibody (clone STAR94F)
